The assay deals with T1, human recombinant GIP receptor (human, UniProt P48546 22-466).
T1 construct: whole, on cells; Membranes of CHO-K1 cells expressing the receptor; also called hGIP receptor
T1 sequence (looked up): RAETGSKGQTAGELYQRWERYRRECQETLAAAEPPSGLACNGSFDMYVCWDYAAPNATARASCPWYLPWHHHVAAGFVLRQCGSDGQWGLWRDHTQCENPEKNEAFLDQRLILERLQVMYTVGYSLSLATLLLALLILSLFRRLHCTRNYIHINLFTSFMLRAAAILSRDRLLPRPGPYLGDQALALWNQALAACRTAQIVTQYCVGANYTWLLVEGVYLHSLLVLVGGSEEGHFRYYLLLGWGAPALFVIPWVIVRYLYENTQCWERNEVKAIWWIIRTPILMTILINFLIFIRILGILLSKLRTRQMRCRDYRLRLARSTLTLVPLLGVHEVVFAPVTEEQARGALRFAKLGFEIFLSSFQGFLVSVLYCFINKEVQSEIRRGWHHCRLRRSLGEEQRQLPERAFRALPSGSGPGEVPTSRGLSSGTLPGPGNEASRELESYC
Nature of the assay: [125I]GIP competition, membranes of CHO-K1 cells expressing human GIP receptor, same conditions as Table 2.

Where no end group is shown, it is not given here.

For orientation: Ki means a measure of affinity in units of concentration, obtained from inhibition or displacement.

B1: [Pro^3]hGIP(1-42)-OH (peptide)
peptide: YAPGTFISDYSIAMDKIHQQDFVNWLLAQKGKKNDWKHNITQ-OH
For the molecule B1, the Ki came out at 171 nM.
